Experimental data from US20150203577A1 (Chugai, published 2015).
Where a chain is given by its changes, count along the chain named.

T1: mouse FcγRII extracellular domain with C-terminal His tag (mouse, UniProt P08101 30-210)
T1 construct: Made on the basis of NCBI NP-034317.1; also called mFcγRII; mFcgRII
T1 sequence: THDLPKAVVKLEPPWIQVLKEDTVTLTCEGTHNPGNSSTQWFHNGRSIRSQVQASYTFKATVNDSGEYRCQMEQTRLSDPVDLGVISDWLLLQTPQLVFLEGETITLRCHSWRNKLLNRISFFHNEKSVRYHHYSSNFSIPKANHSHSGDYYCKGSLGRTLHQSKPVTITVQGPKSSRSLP

T2: mouse FcγRIII extracellular domain with C-terminal His tag (mouse, UniProt P08508 31-215)
T2 construct: Made on the basis of NCBI NP-034318.2; also called mFcγRIII; mFcgRIII
T2 chain: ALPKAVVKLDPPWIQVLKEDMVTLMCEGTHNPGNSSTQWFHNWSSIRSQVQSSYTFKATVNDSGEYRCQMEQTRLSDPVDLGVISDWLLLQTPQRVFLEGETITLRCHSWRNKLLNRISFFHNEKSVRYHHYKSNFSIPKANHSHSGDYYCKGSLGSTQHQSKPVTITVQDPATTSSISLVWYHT

T3: mouse FcγRII (mouse, UniProt P08101 30-210)
T3 construct: also called mFcγRII; mFcgRII
T3 sequence: T1 sequence

T4: mouse FcγRIII (mouse, UniProt P08508 31-215)
T4 construct: also called mFcγRIII; mFcgRIII
T4 chain: T2 chain

B1: H237-MB468/MRAL-k0 (antibody, mouse IgG1, kappa)
heavy: QVQLQESGPGLVKPSETLSLTCAVSGHSISHDHAWSWVRQPPGEGLEWIGFISYSGITNYNPSLQGRVTISRDNSKNTLYLQMNSLRAEDTAVYYCARSLARTTAMDYWGEGTLVTVSSAKTTPPSVYPLAPGSAAQTNSMVTLGCLVKGYFPEPVTVTWNSGSLSSGVHTFPAVLQSDLYTLSSSVTVPSSTWPSETVTCNVAHPASSTKVDKKIVPRDCGCKPCICEAYEVEEVFIFPPKPKDVLTITLTPKVTCVVVDISKDDPEVQFSWFVDDVEVHTAQTQPREEQFNSTFRSVSELPIMHQDWLNGKEFKCRVNSAAFPAPIEKTISKTKGRPKAPQVYTIPPPKEQMAKDKVSLTCMITDFFPEDITVEWQWNGQPAENYKNTQPIMDTDGSYFVYSKLNVQKSNWEAGNTFTCSVLHEGLHNHHTEKSLSHSPGK
light: not shown
notes: copies: 2 + 2
B2: H237-MB469/MRAL-k0 (antibody, mouse IgG1, kappa)
heavy: B1 heavy with A230D
light: not shown
notes: copies: 2 + 2
B3: H237-MB470/MRAL-k0 (antibody, mouse IgG1, kappa)
heavy: B1 heavy with A230N
light: not shown
notes: copies: 2 + 2
B4: H237-MB471/MRAL-k0 (antibody, mouse IgG1, kappa)
heavy: B1 heavy with A230T
light: not shown
notes: copies: 2 + 2
B5: H237-MB472/MRAL-k0 (antibody, mouse IgG1, kappa)
heavy: B1 heavy with A230V
light: not shown
notes: copies: 2 + 2
B6: H237-MB481/MRAL-k0 (antibody, mouse IgG1, kappa)
heavy: B1 heavy with E235S
light: not shown
notes: copies: 2 + 2
B7: H237-MB482/MRAL-k0 (antibody, mouse IgG1, kappa)
heavy: B1 heavy with A230D, E235S
light: not shown
notes: copies: 2 + 2
B8: H237-MB483/MRAL-k0 (antibody, mouse IgG1, kappa)
heavy: B1 heavy with A230N, E235S
light: not shown
notes: copies: 2 + 2
B9: H237-MB484/MRAL-k0 (antibody, mouse IgG1, kappa)
heavy: B1 heavy with A230T, E235S
light: not shown
notes: copies: 2 + 2
B10: H237-MB485/MRAL-k0 (antibody, mouse IgG1, kappa)
heavy: B1 heavy with A230V, E235S
light: not shown
notes: copies: 2 + 2
B11: H237-MB487/MRAL-k0 (antibody, mouse IgG1, kappa)
heavy: B1 heavy with E229I, A230P, Y231A, E235S
light: not shown
notes: copies: 2 + 2
B12: H237-MB488/MRAL-k0 (antibody, mouse IgG1, kappa)
heavy: B1 heavy with A230P, Y231N, E235S
light: not shown
notes: copies: 2 + 2
B13: H237-MB489/MRAL-k0 (antibody, mouse IgG1, kappa)
heavy: B1 heavy with E229Q, A230P, Y231N, E235S
light: not shown
notes: copies: 2 + 2
B14: H237-MB508/MRAL-k0 (antibody, mouse IgG1, kappa)
heavy: B1 heavy with E235M
light: not shown
notes: copies: 2 + 2
B15: H237-MB509/MRAL-k0 (antibody, mouse IgG1, kappa)
heavy: B1 heavy with A230D, E235M
light: not shown
notes: copies: 2 + 2
B16: H237-MB510/MRAL-k0 (antibody, mouse IgG1, kappa)
heavy: B1 heavy with A230N, E235M
light: not shown
notes: copies: 2 + 2
B17: H237-MB511/MRAL-k0 (antibody, mouse IgG1, kappa)
heavy: B1 heavy with A230T, E235M
light: not shown
notes: copies: 2 + 2
B18: H237-MB512/MRAL-k0 (antibody, mouse IgG1, kappa)
heavy: B1 heavy with A230V, E235M
light: not shown
notes: copies: 2 + 2
B19: H237-MB514/MRAL-k0 (antibody, mouse IgG1, kappa)
heavy: B1 heavy with E229I, A230P, Y231A, E235M
light: not shown
notes: copies: 2 + 2
B20: H237-MB516/MRAL-k0 (antibody, mouse IgG1, kappa)
heavy: B1 heavy with E229Q, A230P, Y231N, E235M
light: not shown
notes: copies: 2 + 2
B21: H237-MB517/MRAL-k0 (antibody, mouse IgG1, kappa)
heavy: B1 heavy with E235W
light: not shown
notes: copies: 2 + 2
B22: H237-MB518/MRAL-k0 (antibody, mouse IgG1, kappa)
heavy: B1 heavy with A230D, E235W
light: not shown
notes: copies: 2 + 2
B23: H237-MB520/MRAL-k0 (antibody)
heavy: B1 heavy with A230T, E235W
light: not shown
notes: copies: 2 + 2
B24: H237-MB521/MRAL-k0 (antibody, mouse IgG1, kappa)
heavy: B1 heavy with A230V, E235W
light: not shown
notes: copies: 2 + 2
B25: H237-MB522/MRAL-k0 (antibody, mouse IgG1, kappa)
heavy: B1 heavy with A230P, Y231A, E235W
light: not shown
notes: copies: 2 + 2
B26: H237-MB523/MRAL-k0 (antibody, mouse IgG1, kappa)
heavy: B1 heavy with E229I, A230P, Y231A, E235W
light: not shown
notes: copies: 2 + 2
B27: H237-MB525/MRAL-k0 (antibody, mouse IgG1, kappa)
heavy: B1 heavy with E229Q, A230P, Y231N, E235W
light: not shown
notes: copies: 2 + 2
B28: MB002 (antibody, mouse IgG1, kappa)
heavy: B1 heavy with E229D, A230V, Y231P, E234S, E235S
light: not shown
notes: copies: 2 + 2
B29: MB003 (antibody, mouse IgG1, kappa)
heavy: B1 heavy with A230V, Y231P, E234S, E235S
light: not shown
notes: copies: 2 + 2
B30: MB013 (antibody, mouse IgG1, kappa)
heavy: B1 heavy with E229Q, A230V, Y231P, E234S, E235S
light: not shown
notes: copies: 2 + 2
B31: MB016 (antibody, mouse IgG1, kappa)
heavy: B1 heavy with E229V, A230V, Y231P, E234S, E235S
light: not shown
notes: copies: 2 + 2

molecular target: T1, mouse FcγRII extracellular domain with …; assay: SPR Biacore T200
Method: (§1) Each altered antibody was analyzed for its interaction with each Fcγ receptor prepared above using Biacore T100 (GE Healthcare Japan Corp.), Biacore T200 (GE Healthcare Japan Corp.), Biacore A100, or Biacore 4000. The running buffer used was HBS-EP+ (GE Healthcare Japan Corp.). The assay temperature was set to 25° C. The sensor chips used were chips prepared by immobilizing Protein L (ACTIGEN or BioVision) onto Series S Sensor Chip CM5 (GE Healthcare Japan Corp.) or Series S Sensor Chip CM4 (GE Healthcare Japan Corp.) by the amine coupling method.
(§2) In order to calculate the KD value of each altered antibody for FcγR, kinetic analysis was conducted according to the following method: first, the antibody of interest was captured onto any of these chips and allowed to interact with mFcγR diluted with a running buffer. For the obtained sensorgram, the assay results were globally fit into the 1:1 Langmuir binding model using Biacore Evaluation Software to calculate an association rate constant ka (L/mol/s) and a dissociation rate constant kd (1/s). From these values, the dissociation constant KD (mol/L) was calculated.

Row | Binder | relative mFcγRII-binding activity (mIgG1 = 1)
1 | B1 | 63.1
2 | B2 | 57.1
3 | B3 | 63.8
4 | B4 | 91.4
5 | B5 | 39.4
6 | B6 | 8.5
7 | B7 | 14.1
8 | B8 | 9.4
9 | B9 | 14.9
10 | B10 | 5
11 | B11 | 6.8
12 | B12 | 28.7
13 | B13 | 6.9
14 | B14 | 5.5
15 | B15 | 10.7
16 | B16 | 6.5
17 | B17 | 8.3
18 | B18 | 3.5
19 | B19 | 4.5
20 | B20 | 38.6
21 | B21 | 1.2
22 | B22 | 1.2
23 | B23 | 1.8
24 | B24 | 1.6
25 | B25 | 1.5
26 | B26 | 0.5
27 | B27 | 2.8

Molecular target: T2, mouse FcγRIII extracellular domain with …
Assay: SPR Biacore T200
Method: as §1, §2

Row | Binder | relative mFcγRIII-binding activity (mIgG1 = 1)
28 | B1 | 2.8
29 | B2 | 2.8
30 | B3 | 4.9
31 | B4 | 4.8
32 | B5 | 2.5
33 | B6 | 0.6
34 | B7 | 0.7
35 | B8 | 0.9
36 | B9 | 1.1
37 | B10 | 0.5
38 | B11 | 0.5
39 | B12 | 1.8
40 | B13 | 1.1
41 | B14 | 0.4
42 | B15 | 0.6
43 | B16 | 0.6
44 | B17 | 0.6
45 | B18 | 0.3
46 | B19 | 0.2
47 | B20 | 1.6
48 | B21 | 0.4
49 | B22 | 0.4
50 | B23 | 1.3
51 | B24 | 0.7
52 | B25 | 0.1
53 | B26 | 0.1
54 | B27 | 0.3

molecular target: T3, mouse FcγRII; assay: SPR Biacore 4000, KD ratio
Method: as §1, §2

Row | Binder | relative mFcγRII-binding activity (mIgG1 = 1) [fold]
55 | B28 | 2.72
56 | B29 | 5.06
57 | B30 | 1.2
58 | B31 | 1.15

Molecular target: T4, mouse FcγRIII
Assay: SPR Biacore 4000, KD ratio
Method: as §1, §2

Row | Binder | relative mFcγRIII-binding activity (mIgG1 = 1) [fold]
59 | B28 | 1.47
60 | B29 | 1.51
61 | B30 | 1.07
62 | B31 | 1
